Changes are numbered by the printed parent chain.
T1: Rv2745-S (ClgR, stabilized/soluble form) (Mycobacterium tuberculosis, UniProt P9WMH7 1-112, V111D;A112D)
T1 sequence: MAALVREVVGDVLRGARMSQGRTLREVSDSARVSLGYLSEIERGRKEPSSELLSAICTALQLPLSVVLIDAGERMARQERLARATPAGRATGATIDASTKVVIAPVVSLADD

T2: Rv2745-S L24SR25D (DBL) (Mycobacterium tuberculosis, UniProt P9WMH7 1-112, L24S;R25D;V111D;A112D)
T2 sequence: T1 sequence with L24S, R25D

B1: clpC1 promoter probe (dsDNA)
DNA 1: CGAGCGGCCATCGGTTCGCCGCCAGCGAACGCGGCAAAGTAC
DNA 2: GTACTTTGCCGCGTTCGCTGGCGGCGAACCGATGGCCGCTCG
B2: clpC1 promoter unlabeled competitor (dsDNA)
DNA 1: B1 DNA 1
DNA 2: B1 DNA 2

Experiments:
[1] = target: T1, Rv2745-S (ClgR, stabilized/soluble form); assay: EMSA; conditions: protein: recombinant; tags: NusA fusion and His tag (pET50b), removed with HRV3C protease; chain copies: 2; label: 5' Cy5.5; blunt
Rv2745-S L24SR25D (DBL) = target: T2, Rv2745-S L24SR25D (DBL); assay: EMSA; conditions: protein: recombinant; chain copies: 2; label: 5' Cy5.5; blunt
[2] = target: T1, Rv2745-S (ClgR, stabilized/soluble form); assay: competition; conditions: protein: recombinant; tags: NusA fusion and His tag (pET50b), removed with HRV3C protease; chain copies: 2; blunt

Binder	binding result [1]	binding result (Rv2745-S L24SR25D (DBL))	binding result [2]
B1	binds	no binding	
B2			binds

From PMC2905415, “Characterization of a Clp Protease Gene Regulator and the Reaeration Response in Mycobacterium tuberculosis”
